{
  "source": "patent US20240034814A1",
  "about": "(JANUX THERAPEUTICS, published 2024)",
  "key": {"[1]": {"molecular_target": "T1, TROP2 on NCI-H292 tumor cells (UniProt P09758 27-274)", "T1 sequence (looked up)": "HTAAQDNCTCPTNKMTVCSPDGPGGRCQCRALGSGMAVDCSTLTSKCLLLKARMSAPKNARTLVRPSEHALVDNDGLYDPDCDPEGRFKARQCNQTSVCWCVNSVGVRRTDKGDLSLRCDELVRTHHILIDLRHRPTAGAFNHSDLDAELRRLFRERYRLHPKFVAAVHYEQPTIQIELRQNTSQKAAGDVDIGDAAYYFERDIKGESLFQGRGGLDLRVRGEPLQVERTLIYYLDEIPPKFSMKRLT", "assay": "cell-based or functional assay"}, "[2]": {"molecular_target": "T2, human serum albumin (human, UniProt P02768 25-609)", "T2 construct": "also called HSA; HSA-biotin", "assay": "ELISA, albumin coated plates, single domain antibody titrated, pH 5.5"}, "[3]": {"molecular_target": "T3, cynomolgus monkey serum albumin (cynomolgus monkey, UniProt A2V9Z4 25-608)", "T3 construct": "Coated on ELISA plates; also called cyno albumin", "T3 sequence (A2V9Z4 25-608 limits assumed)": "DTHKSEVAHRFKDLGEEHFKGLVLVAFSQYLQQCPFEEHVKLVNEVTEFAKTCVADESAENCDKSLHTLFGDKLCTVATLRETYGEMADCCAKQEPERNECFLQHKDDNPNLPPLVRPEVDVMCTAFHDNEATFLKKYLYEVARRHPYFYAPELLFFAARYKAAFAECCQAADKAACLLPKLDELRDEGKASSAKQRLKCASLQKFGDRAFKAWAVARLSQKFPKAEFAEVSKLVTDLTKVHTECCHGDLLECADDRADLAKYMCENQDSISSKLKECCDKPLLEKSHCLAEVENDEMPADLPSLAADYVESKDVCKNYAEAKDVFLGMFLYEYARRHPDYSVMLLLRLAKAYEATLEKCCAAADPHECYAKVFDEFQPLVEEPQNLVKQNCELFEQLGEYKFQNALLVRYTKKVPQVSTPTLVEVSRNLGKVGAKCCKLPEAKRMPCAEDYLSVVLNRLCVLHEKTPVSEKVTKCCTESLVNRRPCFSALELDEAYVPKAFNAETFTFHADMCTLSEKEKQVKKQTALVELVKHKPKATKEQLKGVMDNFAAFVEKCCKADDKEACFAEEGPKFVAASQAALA", "assay": "ELISA, albumin coated plates, single domain antibody titrated, pH 5.5"}, "[4]": {"molecular_target": "T3, cynomolgus monkey serum albumin", "assay": "ELISA on an albumin coated plate, single domain antibody titrated, HRP secondary antibody, OD 450 nm"}, "[5]": {"molecular_target": "T4, Mouse Albumin (mouse, UniProt P07724)", "T4 construct": "coated on the ELISA plate; not described further; also called mouse serum albumin", "T4 sequence (P07724 25-608 limits assumed)": "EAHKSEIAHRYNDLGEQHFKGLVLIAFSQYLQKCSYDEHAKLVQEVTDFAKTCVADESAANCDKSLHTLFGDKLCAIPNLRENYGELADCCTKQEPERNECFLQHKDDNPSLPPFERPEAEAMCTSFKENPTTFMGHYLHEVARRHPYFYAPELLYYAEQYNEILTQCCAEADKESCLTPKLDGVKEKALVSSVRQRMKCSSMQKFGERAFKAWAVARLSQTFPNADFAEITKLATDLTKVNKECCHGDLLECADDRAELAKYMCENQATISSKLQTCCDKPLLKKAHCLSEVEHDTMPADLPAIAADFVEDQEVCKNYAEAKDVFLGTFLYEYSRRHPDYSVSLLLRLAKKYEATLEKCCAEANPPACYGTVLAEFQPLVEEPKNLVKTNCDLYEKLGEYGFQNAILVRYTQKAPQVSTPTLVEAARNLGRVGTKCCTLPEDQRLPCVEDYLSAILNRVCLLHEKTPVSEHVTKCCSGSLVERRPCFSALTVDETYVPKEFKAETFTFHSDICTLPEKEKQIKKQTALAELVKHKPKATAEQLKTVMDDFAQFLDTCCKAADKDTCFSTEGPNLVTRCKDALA", "assay": "ELISA on an albumin coated plate, single domain antibody titrated, HRP secondary antibody, OD 450 nm"}, "[6]": {"molecular_target": "T2, human serum albumin", "assay": "ELISA, albumin coated plates, single domain antibody titrated, pH 7.4"}, "[7]": {"molecular_target": "T3, cynomolgus monkey serum albumin", "assay": "ELISA, albumin coated plates, single domain antibody titrated, pH 7.4"}, "[8]": {"molecular_target": "T2, human serum albumin", "assay": "BLI (Octet RED96), biotinylated HSA on streptavidin biosensors, HE-1 titrated 100-3.125 nM, association and dissociation at pH 5.5, 1:1 fit"}, "[9]": {"molecular_target": "T2, human serum albumin", "assay": "ELISA on an albumin coated plate, single domain antibody titrated, HRP secondary antibody, OD 450 nm"}, "[10]": {"molecular_target": "T2, human serum albumin", "assay": "BLI (Octet RED96), biotinylated HSA on streptavidin biosensors, HE-1 titrated 100-3.125 nM, pH 7.4, 1:1 fit"}, "[11]": {"molecular_target": "T2, human serum albumin", "assay": "Octet, biotinylated human serum albumin on streptavidin biosensors, acidic buffer, association 1 (saturation using SDA)"}, "[12]": {"molecular_target": "T1, TROP2 on NCI-H292 tumor cells", "assay": "Trop2 binding ELISA (TROP2 as ELISA antigen, not on cells), polypeptide complex titrated, OD 450 nm"}},
  "data": [
    {"binder": "Polypeptide complex PC4 (bispecific antibody) light: GGVDFCKIYSWPVCHQGGGGSGGLSGRSDAGSPLGLAGSGGSDIQLTQSPSSLSASVGDRVSITCKASQDVSIAVAWYQQKPGKAPKLLIYSASYRYTGVPDRFSGSGSGTDFTLTISSLQPEDFAVYYCQQHYITPLTFGAGTKVEIKRTVAAPSVFIFPPSDEQLKSGTASVVCLLNNFYPREAKVQWKVDNALQSGNSQESVTEQDSKDSTYSLSSTLTLSKADYEKHKVYACEVTHQGLSSPVTKSFNRGEC heavy: not shown", "values": [
      {"measurement": "H292 IC50 (pM), 72 hours, tumor cell killing with CD8+ T cells", "setting": "[1]", "result": 4120, "unit": "pM"}
    ]},
    {"binder": "HE-1 anti-albumin (VHH, Single domain antibody; also called half-life extending single domain antibody) VHH: EVQLVESGGGLVQPGGSLRLSCAASGSTFYTAVMGWVRQAPGKGLEWVAAIRWTALTTSYADSVKGRFTISRDGAKTTLYLQMNSLRPEDTAVYYCAARGTLGLFTTADSYDYWGQGTLVTVSS", "values": [
      {"measurement": "EC50", "setting": "[2]", "result": 0.9, "unit": "nM"},
      {"measurement": "EC50", "setting": "[3]", "result": 1.3, "unit": "nM"},
      {"measurement": "EC50 (read off the curve)", "setting": "[4]", "result": "~2", "unit": "nM"},
      {"measurement": "binding result", "setting": "[5]", "result": "binds"},
      {"measurement": "EC50", "setting": "[6]", "result": 1, "unit": "nM"},
      {"measurement": "EC50", "setting": "[7]", "result": 1.3, "unit": "nM"},
      {"measurement": "Kd", "setting": "[8]", "result": 4.19, "unit": "nM"},
      {"measurement": "koff", "setting": "[8]", "result": 0.00186, "unit": "s⁻¹"},
      {"measurement": "kon", "setting": "[8]", "result": 444000, "unit": "M⁻¹ s⁻¹"},
      {"measurement": "EC50 (read off the curve)", "setting": "[9]", "result": "~1", "unit": "nM"},
      {"measurement": "Kd", "setting": "[10]", "result": 5.98, "unit": "nM"},
      {"measurement": "koff", "setting": "[10]", "result": 0.00341, "unit": "s⁻¹"},
      {"measurement": "kon", "setting": "[10]", "result": 571000, "unit": "M⁻¹ s⁻¹"}
    ]},
    {"binder": "HE-2 (VHH, also called (HE-2) Anti-albumin) VHH: EVQLVESGGGLVQPGGSLRLSCAASGSTFYTAVMGWVRQAPGKGLEWVAAIRWTALTTSYADSVKGRFTISRDGAKTTLYLQMNSLRPEDTAVYYCAARGTLGLFTTADHYDYWGQGTLVTVSS", "values": [
      {"measurement": "binding result", "setting": "[11]", "result": "binds"}
    ]},
    {"binder": "Polypeptide complex PC3 (bispecific antibody, TROP2 and CD3 targeting regions (anti-CD3 scFv fused to the Fab heavy chain); No mask and no HE-1) light: DIQLTQSPSSLSASVGDRVSITCKASQDVSIAVAWYQQKPGKAPKLLIYSASYRYTGVPDRFSGSGSGTDFTLTISSLQPEDFAVYYCQQHYITPLTFGAGTKVEIKRTVAAPSVFIFPPSDEQLKSGTASVVCLLNNFYPREAKVQWKVDNALQSGNSQESVTEQDSKDSTYSLSSTLTLSKADYEKHKVYACEVTHQGLSSPVTKSFNRGEC heavy: QTVVTQEPSLTVSPGGTVTLTCRSSTGAVTTSNYANWVQQKPGQAPRGLIGGTNKRAPGTPARFSGSLLGGKAALTLSGVQPEDEAEYYCALWYSNLWVFGGGTKLTVLGGGGSGGGGSGGGGSEVQLVESGGGLVQPGGSLKLSCAASGFTFNTYAMNWVRQAPGKGLEWVARIRSKYNNYATYYADSVKDRFTISRDDSKNTAYLQMNNLKTEDTAVYYCVRHGNFGNSYVSWFAYWGQGTLVTVSSGGGGSQVQLQQSGSELKKPGASVKVSCKASGYTFTNYGMNWVKQAPGQGLKWMGWINTYTGEPTYTDDFKGRFAFSLDTSVSTAYLQISSLKADDTAVYFCARGGFGSSYWYFDVWGQGSLVTVSSASTKGPSVFPLAPSSKSTSGGTAALGCLVKDYFPEPVTVSWNSGALTSGVHTFPAVLQSSGLYSLSSVVTVPSSSLGTQTYICNVNHKPSNTKVDKKVEPKSC", "values": [
      {"measurement": "EC50 (read off the curve)", "setting": "[12]", "result": "~0.2", "unit": "nM"},
      {"measurement": "H292 IC50 (pM), 72 hours, tumor cell killing with CD8+ T cells", "setting": "[1]", "result": 0.88, "unit": "pM"}
    ]}
  ]
}
